According to paper PMC8034648, “Oligomeric complexes formed by Redβ single strand annealing protein in its different DNA bound states”:
Where “and” joins values, the source holds several entries; their conditions need not be identical. Identical values can stand only once.

Columns and labels:
[1] = target: Redβ single strand annealing protein from bacteriophage λ (bacteriophage λ) (UniProt P03698); assay: native MS; 1 μM Redβ with two complementary strands added sequentially (83-:83+ or 83-:87+), annealed duplex; 50 mM ammonium acetate pH 7
[2] = target: Redβ single strand annealing protein from bacteriophage λ (bacteriophage λ) (UniProt P03698); assay: SEC-MALS; Redβ with 83- then 83+ added sequentially (annealed duplex); Superose 6 increase, PBS; loaded at 34 μM; n assumes one copy of 83-:83+
[3] = target: Redβ single strand annealing protein from bacteriophage λ (bacteriophage λ) (UniProt P03698); assay: native MS; Redβ alone, no DNA, at 1 μM or greater (up to 30 μM); 50 mM ammonium acetate pH 7; monomers to 12-mer
[4] = target: Redβ single strand annealing protein from bacteriophage λ (bacteriophage λ) (UniProt P03698); assay: native MS; 1 μM Redβ with two complementary strands added sequentially (83-:83+ or 83-:87+), annealed duplex; 50 mM ammonium acetate pH 7; remark: listed apart in the source
[5] = target: Redβ single strand annealing protein from bacteriophage λ (bacteriophage λ) (UniProt P03698); assay: native MS; Redβ (0.1 to 30 μM) with two complementary 38-mers added sequentially (dT38:dA38; at 1 μM also 38NC1+:38NC1- and 38NC3+:40NC3-), annealed duplex; 50 mM ammonium acetate pH 7
[6] = target: Redβ single strand annealing protein from bacteriophage λ (bacteriophage λ) (UniProt P03698); assay: SEC-MALS; Redβ with dT38 ssDNA (6 nt/monomer, 22°C, 30 min); Superose 6 increase, PBS; loaded at 34 μM; n assumes one copy of dT38
[7] = target: Redβ single strand annealing protein from bacteriophage λ (bacteriophage λ) (UniProt P03698); assay: native MS; Redβ alone, no DNA, at 1 μM or greater (up to 30 μM); 50 mM ammonium acetate pH 7; monomers to 12-mer; remark: listed apart in the source
[8] = target: Redβ single strand annealing protein from bacteriophage λ (bacteriophage λ) (UniProt P03698); assay: SEC-MALS; Redβ alone, no DNA; Superose 6 increase 3.2/300, PBS, 0.04 ml/min; loaded at 34, 67 and 101 μM, eluted at 6.0, 13.5 and 18.5 μM; weight-average mass; monomers to oligomer
[9] = target: Redβ single strand annealing protein from bacteriophage λ (bacteriophage λ) (UniProt P03698); assay: SEC-MALS; Redβ with 83- ssDNA (6 nt/monomer, 22°C, 30 min); Superose 6 increase, PBS; loaded at 34 μM; n assumes one copy of the 83-mer
[10] = target: Redβ single strand annealing protein from bacteriophage λ (bacteriophage λ) (UniProt P03698); assay: SEC-MALS; Redβ with dT38 then dA38 added sequentially (annealed duplex, 4 nt/monomer each); Superose 6 increase, PBS; loaded at 34 μM; n assumes one copy of dT38:dA38
[11] = target: Redβ single strand annealing protein from bacteriophage λ (bacteriophage λ) (UniProt P03698); assay: native MS; Redβ (0.1 to 30 μM) with two complementary 38-mers added sequentially (dT38:dA38; at 1 μM also 38NC1+:38NC1- and 38NC3+:40NC3-), annealed duplex; 50 mM ammonium acetate pH 7; remark: listed apart in the source
[12] = target: Redβ single strand annealing protein from bacteriophage λ (bacteriophage λ) (UniProt P03698); assay: SEC-MALS; Redβ with dT38 ssDNA (6 nt/monomer, 22°C, 30 min); Superose 6 increase, PBS; loaded at 34 μM; n assumes one copy of dT38; remark: listed apart in the source
[13] = target: T1, Redβ single strand annealing protein (bacteriophage λ, UniProt P03698); assay: SEC-MALS; PBS; 427 kDa, n=14.0; EMSA: 10 uM Redβ, 50 uM nt DNA, 37 C, in PBS, or 20 mM Tris-HCl pH 7.5/10 mM NaCl/10 mM MgCl2, or 50 mM ammonium acetate pH 7.0; SEC-MALS: PBS, complexes formed; details: protein: recombinant; tags: N-terminal GSH left after thrombin removal of 6xHis; chain copies: 11
T1 sequence: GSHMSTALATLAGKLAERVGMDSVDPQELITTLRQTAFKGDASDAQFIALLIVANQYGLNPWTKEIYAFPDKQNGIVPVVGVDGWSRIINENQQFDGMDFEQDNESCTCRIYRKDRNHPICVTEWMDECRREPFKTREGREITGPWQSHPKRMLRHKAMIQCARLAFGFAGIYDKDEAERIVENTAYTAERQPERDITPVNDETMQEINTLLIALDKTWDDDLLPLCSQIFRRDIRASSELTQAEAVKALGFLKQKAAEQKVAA

[14] = target: T1, Redβ single strand annealing protein; assay: EMSA; strands added sequentially, PBS; EMSA: 10 uM Redβ, 50 uM nt DNA, 37 C, in PBS, or 20 mM Tris-HCl pH 7.5/10 mM NaCl/10 mM MgCl2, or 50 mM ammonium acetate pH 7.0; SEC-MALS: PBS, complexes formed; details: protein: recombinant; tags: N-terminal GSH left after thrombin removal of 6xHis; chain copies: 11; label: 5'-Cy5, 5'-Cy3; blunt
[15] = target: T1, Redβ single strand annealing protein; assay: EMSA; PBS, ssDNA alone; EMSA: 10 uM Redβ, 50 uM nt DNA, 37 C, in PBS, or 20 mM Tris-HCl pH 7.5/10 mM NaCl/10 mM MgCl2, or 50 mM ammonium acetate pH 7.0; SEC-MALS: PBS, complexes formed; details: protein: recombinant, tags: N-terminal GSH left after thrombin removal of 6xHis, chain copies: 11
[16] = target: T1, Redβ single strand annealing protein; assay: native MS; 1 uM Redβ and higher; 8-13 subunits; EMSA: 10 uM Redβ, 50 uM nt DNA, 37 C, in PBS, or 20 mM Tris-HCl pH 7.5/10 mM NaCl/10 mM MgCl2, or 50 mM ammonium acetate pH 7.0; SEC-MALS: PBS, complexes formed; details: protein: recombinant; tags: N-terminal GSH left after thrombin removal of 6xHis; chain copies: 11
[17] = target: T1, Redβ single strand annealing protein; assay: native MS; 1 uM Redβ; 5-15 subunits, 1 or 2 DNA; EMSA: 10 uM Redβ, 50 uM nt DNA, 37 C, in PBS, or 20 mM Tris-HCl pH 7.5/10 mM NaCl/10 mM MgCl2, or 50 mM ammonium acetate pH 7.0; SEC-MALS: PBS, complexes formed; details: protein: recombinant; tags: N-terminal GSH left after thrombin removal of 6xHis; chain copies: 11
[18] = target: T1, Redβ single strand annealing protein; assay: native MS; strands added sequentially, 1 uM Redβ; 11 subunits; EMSA: 10 uM Redβ, 50 uM nt DNA, 37 C, in PBS, or 20 mM Tris-HCl pH 7.5/10 mM NaCl/10 mM MgCl2, or 50 mM ammonium acetate pH 7.0; SEC-MALS: PBS, complexes formed; details: protein: recombinant, tags: N-terminal GSH left after thrombin removal of 6xHis, chain copies: 11
[19] = target: T1, Redβ single strand annealing protein; assay: EMSA; added first, then noncomplementary Cy5 50mer; unusually high affinity; EMSA: 10 uM Redβ, 50 uM nt DNA, 37 C, in PBS, or 20 mM Tris-HCl pH 7.5/10 mM NaCl/10 mM MgCl2, or 50 mM ammonium acetate pH 7.0; SEC-MALS: PBS, complexes formed; details: protein: recombinant; tags: N-terminal GSH left after thrombin removal of 6xHis; chain copies: 11; label: 5'-Cy3

With “Redβ single strand annealing protein from bacteriophage λ (from UniProt P03698 1-261) (natural protein)” the stoichiometry N [1] was 22 subunits, the stoichiometry N [2] was 18.2 subunits and the midpoint of the transition from monomer to 12-mer [3] was 1 µM. For the same molecule, the stoichiometry N [3] was 1 to 14 subunits, the stoichiometry N [4] was 21 subunits and 23 subunits and the stoichiometry N [5] was 11 subunits. For the same molecule, the stoichiometry N [6] was 14 subunits, the stoichiometry N [7] was 12 subunits and the stoichiometry N [8] was 8.6 subunits and 9.1 subunits. For the same molecule, the stoichiometry N [9] was 21.1 subunits, the stoichiometry N [10] was 11.3 subunits and the stoichiometry N [11] was 9 subunits and 10 subunits. It also gave a stoichiometry N [12] of 14.1 subunits.

For “Redβ single strand annealing protein from bacteriophage λ (from UniProt P03698 1-261)”, the stoichiometry N [8] was 7.7 subunits.

TTTTTTTTTTTTTTTTTTTTTTTTTTTTTTTTTTTTTT (ssDNA) [dT38]: binds [13].

B1: 28mer annealed duplex (dsDNA)
DNA 1: AAAATCGAGCTATGCAGGGCGATTCTGC
DNA 2: GCAGAATCGCCCTGCATAGCTCGATTTT
B1: binds [14].

AAAATCGAGCTATGCA (ssDNA) [Cy5 16mer]: no binding ([15]; label: 5'-Cy5).

AAAAAAAAAAAAAAAAAAAAAAAAAAAAAAAAAAAAAA (ssDNA) [dA38]: binds [16].

B2: 24mer annealed duplex (dsDNA)
DNA 1: AAAATCGAGCTATGCAGGGCGATT
DNA 2: AATCGCCCTGCATAGCTCGATTTT
B2: binds [14].

GCCCTGCATAGCTCGATTTT (ssDNA) [Cy3 20mer]: no binding ([15]; label: 5'-Cy3).

AGACACAGTAAACGGACGCTAGATGCAACGAGATCCGA (ssDNA) [38NC1+]: binds [17].

B3: 38NC1+:38NC1- (dsDNA)
DNA 1: AGACACAGTAAACGGACGCTAGATGCAACGAGATCCGA
DNA 2: TCGGATCTCGTTGCATCTAGCGTCCGTTTACTGTGTCT
B3: binds ([18]; blunt).

GCGTTATCTCGCCATTGTGTTATCTGTCATTGTGCGTCGC (ssDNA) [40NC3-]: binds [17].

B4: 20mer annealed duplex (dsDNA)
DNA 1: AAAATCGAGCTATGCAGGGC
DNA 2: GCCCTGCATAGCTCGATTTT
B4: binds [14].

AAAATCGAGCTATGCAGGGCGATT (ssDNA) [Cy5 24mer]: no binding ([15]; label: 5'-Cy5).

AATCGCCCTGCATAGCTCGATTTT (ssDNA) [Cy3 24mer]: no binding ([15]; label: 5'-Cy3).

TGCATAGCTCGATTTT (ssDNA) [Cy3 16mer]: no binding ([15]; label: 5'-Cy3).

GACGCACAATGACAGATAACACAATGGCGAGATAACGC (ssDNA) [38NC3+]: binds [17].

B5: 38NC3+:40NC3- (dsDNA)
DNA 1: GACGCACAATGACAGATAACACAATGGCGAGATAACGC
DNA 2: GCGTTATCTCGCCATTGTGTTATCTGTCATTGTGCGTCGC
B5: binds ([18]; 3' overhang 2 nt on strand 2).

AAAATCGAGCTATGCAGGGCGATTCTGC (ssDNA) [Cy5 28mer]: no binding ([15]; label: 5'-Cy5).

TCGGATCTCGTTGCATCTAGCGTCCGTTTACTGTGTCT (ssDNA) [38NC1-]: binds [17].

GCAGAATCGCCCTGCATAGCTCGATTTT (ssDNA) [Cy3 28mer]: no binding ([15]; label: 5'-Cy3).

AAAATCGAGCTATGCAGGGC (ssDNA) [Cy5 20mer]: no binding ([15]; label: 5'-Cy5).

GAGTGATAGGCATATGTGCTACGAGTATCGAAGGAACGGTCACTACGCAA (ssDNA) [Cy3 NC 50mer]: binds [19].
